The source of these data is patent publication US20080171347A1.

For this assay, the target named is mouse synaptosomes (synaptosome preparation carrying the BoNT/A acceptor complex).

Substance “inactivated BoNT/A (toxoid) (from UniProt P0DPI1 2-1296)” returned a percent inhibition (maximum) of 98%.
